# T1: thermolysin-cleaved EBOV GP on Jurkat-GP cells (cleaved GP) (Zaire ebolavirus, Makona (GP1 core …, strain))
# T1 chain 1: not shown
# T1 chain 2: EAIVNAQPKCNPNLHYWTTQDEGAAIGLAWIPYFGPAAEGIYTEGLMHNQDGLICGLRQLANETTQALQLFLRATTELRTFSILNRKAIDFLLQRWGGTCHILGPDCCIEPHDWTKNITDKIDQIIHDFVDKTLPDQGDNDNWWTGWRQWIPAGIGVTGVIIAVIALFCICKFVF
# How the values were obtained:
# [1] = target: T1, thermolysin-cleaved EBOV GP on …
# [2] = target: EBOV GP ectodomain residues 1-636 (GPec) (Zaire ebolavirus, strain  …, UniProt Q05320)
Binder,binding result [1],binding result [2]
"5.6.c2692 (antibody, V domains shown) VH: QVTLRESGPALVKSTQTLTLTCTFSGFSLSTSGMCVSWIRQPPGKALEWLALIDWDDGKYYSTSLKTRLTISKGTSKNQVVLTMTNMDPVDTATYYCARIRYTSDWFYDAFDIWGQGTMVTVSS VL: ETVMTQSPATLSVSPGERATLSCRASQSVNSNLAWYQQRPGQAPRLLISGASTRATGIPARFSGSGSGTEFTLTISSLQSEDFAVYYCQQYNDWPPLTFGGGTKVEIK",binds,binds
"5.6.c2913 (antibody, V domains shown) VH: DVQLVESGGGLVQPGGSLRLSCVASGLTFSRDWMTWVRQAPGKGLEWVANIKQDGSEKYYLDSVKGRFTISRDNSNNALYLQMSSLRGEDTAVYYCARLHGGGFSDSDLFYYDFAMDVWGQGTTVTVSA VL: EIVMTQSPATLSVSPGERATLSCRASQSVINNLAWYQQKPGQAPRLLIYGASTRATGIPARFSGSGSGTEFTLTISNLQSEDFAVYYCQQYNNWPPLTFGGGTQVEIK",binds,binds
"5.6.c2828 (antibody, V domains shown) VH: EVQLVQSGAEVKKPGESLRISCKGSGYSFTKYWISWVRQMPGKGLEWMGRIDPSDSSTNYSPSFQGHVTISDDKSTSIVYLQWSSLKASDTAMYYCARHSWVQNSAYDPQMISYDHYYGMDVWGQGTTVTVSS VL: ENVLTQSPGTLSLSPGERATLSCRASQSVSSSYLAWYQQKPGQAPRLLIYGASSRATGIPDRFSGSGSGTDFTLTISRLEPGDFAVYYCHQYGSSPLTFGQGTRLEMK",binds,binds
"5.6.c2725 (antibody, V domains shown) VH: QVQLQESGPGLVKPSQTLSLTCTVSGGSISSGGYYWSWIRQHPGKGLEWIGYIYYSGSTYYNPSLKSRVSISAGTSKNQFSLKLSSVTAADTAVYYCARAYCGGDCYSLLYYYYGMDVWGQGTTVTVSS VL: QSALTQPASVSGSPGQSITISCTGTSSDVGGYNSVSWYQQHPGKAPKLMIYDVSNRPSGVSDRFSGSKSGNTASLTISGLQAEDEADYYCSSYTSSSTLVFGGGTKLTVL",binds,binds
"5.6.c2886 (antibody, V domains shown) VH: QVQLQESGPGLVKPSQTLSLTCTVSGGSISSGDYYWSWIRQHPGKGLEYIGYIYYSGSTFHNPSLKSRVTISIDTSKNQFSLKLSSVTAADTAVYYCARDSGSEIIMGAYGMDVWGQGTTVTVSS VL: DIQMTQSPSSVSASVGDRVTITCRASQGISWLAWYQQKPGKAPKLLIYAASSLQSGVPSRFSGSGSGTDFTLTISSLQPEDFATYYCQQANSFPWTFGQGTKVEIK",binds,binds
"5.6.c2798 (antibody, V domains shown) VH: QVQLQESGPGLVKPSETLSLTCTVSGGSISPDYWTWIRQPPGKGLEWIGFIYYAGGTDYNPSLKSRVTMSIDTSKKQFFLKLNSVTAADTAVYYCASGVPEDNSQILYYYYGMDVWGPGTTVTVSS VL: QSVLTQPPSVSAAPGQKVTISCSGSSPNIGNNYVSWYQQLPGTAPKLLIYDNNKRPSGIPDRFSGSKSGTSATLGITGLQTGDEADYYCGTWDRSLSAYVFGTGTKVTVL",binds,binds
"5.6.c2686 (antibody, V domains shown) VH: QVQLQESGPGLVKPSGTLSLTCAVSGGSITSSDWWSWVRQTPGKGLEWIGQIYSGGMTDYNPSLKSRVTMSLDKSKNQFSVKLNSVTAADTAVYYCARHRLNAEMYCSGGSCYPADSNWFDPWGQGTLVTVSS VL: DIQMTQSPSSLSASVGDRVTITCRASQSISTYLNWYQQKPGKAPKLLIYATSSLQSGVPSRFSGSGSGTDFTFTISSLQPEDFATYYCQQSYSTPFTFGPGTKVDIK",binds,binds
"5.6.c2824 (antibody, V domains shown) VH: QVQLQESGPGLVKPSGTLSLTCAVSGGSISSNSWWSWVRQPPGKGLEWIGDMYHSGSTNYNPSLKSRVTISVDKSKNQFSLKLSSVTAADTAVYYCARARHDDSNTFLWFVYGMDVWGQGTTVTVSS VL: DIQMTQSPSSLSASVGDRVTITCRTSQSISSYLNWYQQKPGKAPKLLIYAASSLQSGVPSRFSGSGSGTDFTLTISTLQPEDFATYFCQQSYSTPRTFGQGTKLEIK",binds,binds
"5.6.c2954 (antibody, V domains shown) VH: QAQLQESGPGLVKPSQTLSLTCTVSGGFSSSGGFFWSWIRQHPGKDLEWIGYIYSSGSPYYKPSLKSRVTISIDTSKNQFSLRLSSVTAADTAIYYCARGRGEMLTGYFDYWGQGKLVTVSS VL: SYVLTQPPSVSVAPGKTASITCGGNNIGSKSVHWYQQRPGQAPVLVIYYDTDRPSGIPERFSGSNSGNTATLTISRVEAGDEADYYCQVWDSSSDPLLFGGGTKLTVL",binds,binds
"5.6.c2724 (antibody, V domains shown) VH: QVQLQQLGAGLLKPSETLSLTCAVSGGSFSGYYWSWIRQSPGKGLEWIGEVNQSGNTNYNPSLKSRVTISPDTSKNQFSLKLSSVTAADTAVYYCARGLEDTALLADAFDIWGQGTLVTVSS VL: not shown",binds,binds
"5.6.c2712 (antibody, V domains shown) VH: QVQLQESGPGLVKPSETLSLTCSVSGGSISSDYWSWIRQPPGKGLEWIGYIYYDGSTNFNPSLKSRVTISVDTSKNQLSLKLSSVTAADTAVYYCARVRRWIELGTGLGDWFDPWGQGTLVTVSS VL: SSELTQDPAVSVALGQTVRITCQGDSLRSYYASWHQLKPGQAPVVVIYGIHNRPSGIPDRFSGSSSGNTASLTITGAQAEDEADYYCSSRDSSGNHLVFGGGTKLTVL",binds,binds
"5.6.c2762 (antibody, V domains shown) VH: QLQLQESGPGLVRPSETLSLTCTVSGGSINTNVYYWGWIRQPPGKGLEWIGTIHYSGSTYYNPSVKSRVTISVDTSTNQFSLRLNSLTAADTAVYYCARLAYGSGWAGWFDPWGQGTLVTVSS VL: SSELTQDPAVSVALGQTVRITCQGDSLRVYYATWYQQKPGQAPVLVIYAKNSRPSGIPDRFSGSSSGNTASLTITGTQAEDEADYYCNSRDSSGKVWVFGGGTKLTVL",binds,binds
"5.6.c2801 (antibody, V domains shown) VH: EVQLVESGGGLVQPGGSLRLSCAASGFTFSTYWMSWVRQAPGKGLEWVANIKEDGSEKYYVDSVKGRFTISRDNGKNSLYLQMNSLRAEETAVYYCARDVPGDTVLGDAFHIWGQGTMVTVSS VL: not shown",binds,binds
"5.6.c2687 (antibody, V domains shown) VH: QVQLMESGGGVVQPGRSLRLSCAASGFTFSSYGMHWVRQAPGKGLEWVAVIWNDGSNKYYADSVKGRFTISRDNSKNTLYLQMNSLRVEDTAVYYCARDSSAPAAIFYDAFDMWGQGTMVTVSS VL: EIVMTQSPATLSVSPGERATLSCRASQSINSNLAWYQQKPGQAPRLLIYGVSTRATGIPARFSGSGSGTEFTLTISSLQSEDFAVYYCQQYNNWWTFGQGTKVEIK",binds,binds
"5.6.c2866 (antibody, V domains shown) VH: QVQLVQSGAEVKKPGSSVKVSCKASGGTLSSYAISWVRQAPGQGLEWMGRIIPTLGMANYSQNFQGRVTITADKSTSTAYMELSSLRSEDTAVYYCARDPPPGYGDLFYYYSMDVWGQGTTVTVST VL: not shown",binds,binds
"5.6.c2693 (antibody, V domains shown) VH: QVQVVESGGGVVQPGRSLRLTCATSGFTFRSYGMHWVRQAPGKGLEWVAGISYDGSNKYYADSVKGRFSISRDNSKNTVYLQMNSLRVEDTAVYYCANQLICVNGVCYKTTSVAGIDYWGQGTLVTVSS VL: DIQMTQSPSSLSASVGDRVTITCRASQDISNYLAWFQQKPGKAPKCLIYAASSLQSGVPSKFSGSGSGTDFTLTISSLQPEDFATYYCQQYKDYPLTFGPGTKVDVR",binds,binds
"5.6.c2957 (antibody, V domains shown) VH: QVRMVQSGAEVKKPGSSVKVSCKTSGGTFSTYSISWVRQAPGHGLEWMGRLIPMLGTPNYAQKFQGRLTITADRSTSTAYMELSSLSSEDTAVYYCARDLGTVLTPGDSWGQGTLVTVSS VL: DIQMTQSPSSLSASVGDRVTITCRASQGISNYLAWFQQKPGEAPKSLIYAASSLQSGVPSKFSGSGSGTDFTLTISNLQPEDFATYYCQQYNSYPLTFGGGTKVEIK",binds,binds
"5.6.c2961 (antibody, V domains shown) VH: QVQLQESGPGLVKPSQTLSLTCTVSGDSISSGDYYWNWIRHHPGKGLEWLGYIYYSGSSDYNPSLKSRVTISVDTSKNHFSLKLSSVTAADTAIYYCARGSVSVLFGELDVWGQGTTVTVSS VL: EIVLTQSPGTLSLSPGERATLSCRASQSVSNNFLAWYQQIRGQAPRLLIYGVSHRATGIPDRFSGSGSGTDFTLTISGLEPEDFALYYCQQYGRSPYTFGQGTRLEIK",binds,binds
"5.6.c2773 (antibody, V domains shown) VH: QVELQESGPGLVKPSGTLSLTCTVSGGSISSYHWSWIRQPPGKGLEWIAYMYYSGSTNYNPSLKSRVTTSVETSKNQLSLKVSSVTAADTAVYYCARIVGDEIFFYGLDVWGQGTTVTVSS VL: DIQMTQSPSSVSASVGDRVTITCRASQDISILLAWYQQKPGKAPKLLIYAASSLQSGVPSRFSGSGSGTDFTLTISSLQPEDFATYYCQQANSFPWTFAQGTKVEIK",binds,binds
"5.6.c2931 (antibody, V domains shown) VH: QLQLQESGPGLVKPSQTLSLTCTVAGGSISRSSYYWGWIRQSPGKGLEWIGSIHYSGSTHYNSSLRSRVTISVDTSKNQFSLNLTSVTAADTAVYYCVRQSSVPYFDWSSPGQIDPWGQGTLVTVSS VL: QLVLTQSPSASASLGASVKFTCTLSSGHRSYAIAWHQQQPEKGPRYLMKINSDGSHNKGDGIPDRFSGSSSGDERYLTISSLQSEDEADYYCQTWGTGIQVFGGGTKLTVL",binds,binds

# Reference: paper PMC6908968 (Cell, 2019)
